Laboratory results from US20170114338.

Anthrax lethal factor (Product #169, List Biological Laboratories, Inc)
Peak area Average, 2 hour digest, LF 5 pg/ml plasma (LBL 10081): 9150 peak area | Peak area Average, 2 hour digest, LF 10 pg/ml plasma (LBL 10081): 10300 peak area | Peak area Average, 2 hour digest, LF 20 pg/ml plasma (LBL 10081): 15900 peak area | Peak area Average, 2 hour digest, LF 50 pg/ml plasma (LBL 10081): 33700 peak area | Peak area Average, 3.5 hour digest, LF 5 pg/ml plasma (LBL 10081): 12300 peak area | Peak area Average, 3.5 hour digest, LF 10 pg/ml plasma (LBL 10081): 15900 peak area | Peak area Average, 3.5 hour digest, LF 20 pg/ml plasma (LBL 10081): 24200 peak area | Peak area Average, 3.5 hour digest, LF 50 pg/ml plasma (LBL 10081): 49100 peak area | Peak area Average, 5 hour digest, LF 5 pg/ml plasma (LBL 10081): 15000 peak area | Peak area Average, 5 hour digest, LF 10 pg/ml plasma (LBL 10081): 22300 peak area | Peak area Average, 5 hour digest, LF 20 pg/ml plasma (LBL 10081): 32900 peak area | Peak area Average, 5 hour digest, LF 50 pg/ml plasma (LBL 10081): 66700 peak area | Peak area Average, overnight digest (RT), LF 5 pg/ml plasma (LBL 10081): 26900 peak area | Peak area Average, overnight digest (RT), LF 10 pg/ml plasma (LBL 10081): 36200 peak area | Peak area Average, overnight digest (RT), LF 20 pg/ml plasma (LBL 10081): 57900 peak area | Peak area Average, overnight digest (RT), LF 50 pg/ml plasma (LBL 10081): 130000 peak area | Peak area, 2 hour digest, LF 5 pg/ml plasma, rep 1 (LBL 10081): 9410 peak area | Peak area, 2 hour digest, LF 5 pg/ml plasma, rep 2 (LBL 10081): 8890 peak area | Peak area, 2 hour digest, LF 10 pg/ml plasma, rep 1 (LBL 10081): 10700 peak area | Peak area, 2 hour digest, LF 10 pg/ml plasma, rep 2 (LBL 10081): 9970 peak area | Peak area, 2 hour digest, LF 20 pg/ml plasma, rep 1 (LBL 10081): 16900 peak area | Peak area, 2 hour digest, LF 20 pg/ml plasma, rep 2 (LBL 10081): 14900 peak area | Peak area, 2 hour digest, LF 50 pg/ml plasma, rep 1 (LBL 10081): 33700 peak area | Peak area, 2 hour digest, LF 50 pg/ml plasma, rep 2 (LBL 10081): 33700 peak area | Peak area, 3.5 hour digest, LF 5 pg/ml plasma, rep 1 (LBL 10081): 11500 peak area | Peak area, 3.5 hour digest, LF 5 pg/ml plasma, rep 2 (LBL 10081): 13200 peak area | Peak area, 3.5 hour digest, LF 10 pg/ml plasma, rep 1 (LBL 10081): 16500 peak area | Peak area, 3.5 hour digest, LF 10 pg/ml plasma, rep 2 (LBL 10081): 15300 peak area | Peak area, 3.5 hour digest, LF 20 pg/ml plasma, rep 1 (LBL 10081): 24000 peak area | Peak area, 3.5 hour digest, LF 20 pg/ml plasma, rep 2 (LBL 10081): 24300 peak area | Peak area, 3.5 hour digest, LF 50 pg/ml plasma, rep 1 (LBL 10081): 49700 peak area | Peak area, 3.5 hour digest, LF 50 pg/ml plasma, rep 2 (LBL 10081): 48400 peak area | Peak area, 5 hour digest, LF 5 pg/ml plasma, rep 1 (LBL 10081): 14800 peak area | Peak area, 5 hour digest, LF 5 pg/ml plasma, rep 2 (LBL 10081): 15100 peak area | Peak area, 5 hour digest, LF 10 pg/ml plasma, rep 1 (LBL 10081): 22200 peak area | Peak area, 5 hour digest, LF 10 pg/ml plasma, rep 2 (LBL 10081): 22400 peak area | Peak area, 5 hour digest, LF 20 pg/ml plasma, rep 1 (LBL 10081): 31600 peak area | Peak area, 5 hour digest, LF 20 pg/ml plasma, rep 2 (LBL 10081): 34200 peak area | Peak area, 5 hour digest, LF 50 pg/ml plasma, rep 1 (LBL 10081): 67200 peak area | Peak area, 5 hour digest, LF 50 pg/ml plasma, rep 2 (LBL 10081): 66100 peak area | Peak area, overnight digest (RT), LF 5 pg/ml plasma, rep 1 (LBL 10081): 28500 peak area | Peak area, overnight digest (RT), LF 5 pg/ml plasma, rep 2 (LBL 10081): 25300 peak area | Peak area, overnight digest (RT), LF 10 pg/ml plasma, rep 1 (LBL 10081): 36500 peak area | Peak area, overnight digest (RT), LF 10 pg/ml plasma, rep 2 (LBL 10081): 36000 peak area | Peak area, overnight digest (RT), LF 20 pg/ml plasma, rep 1 (LBL 10081): 58200 peak area | Peak area, overnight digest (RT), LF 20 pg/ml plasma, rep 2 (LBL 10081): 57600 peak area | Peak area, overnight digest (RT), LF 50 pg/ml plasma, rep 1 (LBL 10081): 136000 peak area | Peak area, overnight digest (RT), LF 50 pg/ml plasma, rep 2 (LBL 10081): 124000 peak area | Slope (Peak Area/pg LF), 2 hr digest (Peak Area/pg LF) (LBL 10081): 553 | Slope (Peak Area/pg LF), 3.5 hr digest (Peak Area/pg LF) (LBL 10081): 811 | Slope (Peak Area/pg LF), 5 hr digest (Peak Area/pg LF) (LBL 10081): 1130 | Slope (Peak Area/pg LF), Overnight digest (RT) (Peak Area/pg LF) (LBL 10081): 2280 | Substrate RFUs after 5 hrs digest, LF 10 pg/ml in 1:10 diluted plasma (LBL 10081): 140 RFU | Substrate RFUs after 5 hrs digest, LF 20 pg/ml in 1:10 diluted plasma (LBL 10081): 137 RFU | Substrate RFUs after 5 hrs digest, LF 50 pg/ml in 1:10 diluted plasma (LBL 10081): 137 RFU | Substrate RFUs after 5 hrs digest, LF 100 pg/ml in 1:10 diluted plasma (LBL 10081): 141 RFU | Substrate RFUs after 5 hrs digest, LF 200 pg/ml in 1:10 diluted plasma (LBL 10081): 155 RFU | Substrate RFUs after 5 hrs digest, LF 500 pg/ml in 1:10 diluted plasma (LBL 10081): 190 RFU | Substrate RFUs after 5 hrs digest, LF 1000 pg/ml in 1:10 diluted plasma (LBL 10081): 256 RFU | Substrate RFUs after 24 hrs digest, LF 10 pg/ml in 1:10 diluted plasma (LBL 10081): 147 RFU | Substrate RFUs after 24 hrs digest, LF 20 pg/ml in 1:10 diluted plasma (LBL 10081): 149 RFU | Substrate RFUs after 24 hrs digest, LF 50 pg/ml in 1:10 diluted plasma (LBL 10081): 152 RFU | Substrate RFUs after 24 hrs digest, LF 100 pg/ml in 1:10 diluted plasma (LBL 10081): 161 RFU | Substrate RFUs after 24 hrs digest, LF 200 pg/ml in 1:10 diluted plasma (LBL 10081): 186 RFU | Substrate RFUs after 24 hrs digest, LF 500 pg/ml in 1:10 diluted plasma (LBL 10081): 248 RFU | Substrate RFUs after 24 hrs digest, LF 1000 pg/ml in 1:10 diluted plasma (LBL 10081): 354 RFU | Substrate RFUs, 1 hour, LF 10 pg/ml (LBL 10081): 89 RFU | Substrate RFUs, 1 hour, LF 20 pg/ml (LBL 10081): 87 RFU | Substrate RFUs, 1 hour, LF 50 pg/ml (LBL 10081): 88 RFU | Substrate RFUs, 1 hour, LF 100 pg/ml (LBL 10081): 88 RFU | Substrate RFUs, 1 hour, LF 200 pg/ml (LBL 10081): 92 RFU | Substrate RFUs, 1 hour, LF 500 pg/ml (LBL 10081): 97 RFU | Substrate RFUs, 1 hour, LF 1000 pg/ml (LBL 10081): 114 RFU | Substrate RFUs, 2 hours, LF 10 pg/ml (LBL 10081): 94 RFU | Substrate RFUs, 2 hours, LF 20 pg/ml (LBL 10081): 93 RFU | Substrate RFUs, 2 hours, LF 50 pg/ml (LBL 10081): 95 RFU | Substrate RFUs, 2 hours, LF 100 pg/ml (LBL 10081): 96 RFU | Substrate RFUs, 2 hours, LF 200 pg/ml (LBL 10081): 101 RFU | Substrate RFUs, 2 hours, LF 500 pg/ml (LBL 10081): 116 RFU | Substrate RFUs, 2 hours, LF 1000 pg/ml (LBL 10081): 148 RFU | Substrate RFUs, 3 hours, LF 10 pg/ml (LBL 10081): 98 RFU | Substrate RFUs, 3 hours, LF 20 pg/ml (LBL 10081): 99 RFU | Substrate RFUs, 3 hours, LF 50 pg/ml (LBL 10081): 100 RFU | Substrate RFUs, 3 hours, LF 100 pg/ml (LBL 10081): 103 RFU | Substrate RFUs, 3 hours, LF 200 pg/ml (LBL 10081): 111 RFU | Substrate RFUs, 3 hours, LF 500 pg/ml (LBL 10081): 131 RFU | Substrate RFUs, 3 hours, LF 1000 pg/ml (LBL 10081): 177 RFU | Substrate RFUs, 4 hours, LF 10 pg/ml (LBL 10081): 100 RFU | Substrate RFUs, 4 hours, LF 20 pg/ml (LBL 10081): 99 RFU | Substrate RFUs, 4 hours, LF 50 pg/ml (LBL 10081): 102 RFU | Substrate RFUs, 4 hours, LF 100 pg/ml (LBL 10081): 105 RFU | Substrate RFUs, 4 hours, LF 200 pg/ml (LBL 10081): 115 RFU | Substrate RFUs, 4 hours, LF 500 pg/ml (LBL 10081): 142 RFU | Substrate RFUs, 4 hours, LF 1000 pg/ml (LBL 10081): 202 RFU | Substrate RFUs, 5 hours, LF 10 pg/ml (LBL 10081): 103 RFU | Substrate RFUs, 5 hours, LF 20 pg/ml (LBL 10081): 102 RFU | Substrate RFUs, 5 hours, LF 50 pg/ml (LBL 10081): 106 RFU | Substrate RFUs, 5 hours, LF 100 pg/ml (LBL 10081): 111 RFU | Substrate RFUs, 5 hours, LF 200 pg/ml (LBL 10081): 125 RFU | Substrate RFUs, 5 hours, LF 500 pg/ml (LBL 10081): 157 RFU | Substrate RFUs, 5 hours, LF 1000 pg/ml (LBL 10081): 224 RFU | Substrate RFUs after 5 hrs digest, LF 10 pg/ml in 1:10 diluted plasma (LBL 10097): 224 RFU | Substrate RFUs after 5 hrs digest, LF 20 pg/ml in 1:10 diluted plasma (LBL 10097): 222 RFU | Substrate RFUs after 5 hrs digest, LF 50 pg/ml in 1:10 diluted plasma (LBL 10097): 249 RFU | Substrate RFUs after 5 hrs digest, LF 100 pg/ml in 1:10 diluted plasma (LBL 10097): 242 RFU | Substrate RFUs after 5 hrs digest, LF 200 pg/ml in 1:10 diluted plasma (LBL 10097): 256 RFU | Substrate RFUs after 5 hrs digest, LF 500 pg/ml in 1:10 diluted plasma (LBL 10097): 301 RFU | Substrate RFUs after 5 hrs digest, LF 1000 pg/ml in 1:10 diluted plasma (LBL 10097): 399 RFU | Substrate RFUs after 24 hrs digest, LF 10 pg/ml in 1:10 diluted plasma (LBL 10097): 227 RFU | Substrate RFUs after 24 hrs digest, LF 20 pg/ml in 1:10 diluted plasma (LBL 10097): 223 RFU | Substrate RFUs after 24 hrs digest, LF 50 pg/ml in 1:10 diluted plasma (LBL 10097): 245 RFU | Substrate RFUs after 24 hrs digest, LF 100 pg/ml in 1:10 diluted plasma (LBL 10097): 258 RFU | Substrate RFUs after 24 hrs digest, LF 200 pg/ml in 1:10 diluted plasma (LBL 10097): 286 RFU | Substrate RFUs after 24 hrs digest, LF 500 pg/ml in 1:10 diluted plasma (LBL 10097): 379 RFU | Substrate RFUs after 24 hrs digest, LF 1000 pg/ml in 1:10 diluted plasma (LBL 10097): 559 RFU
